{"source": "paper PMC7017467", "about": "“Enhancement of bleomycin production in Streptomyces verticillus through global metabolic regulation of N-acetylglucosamine and assisted metabolic profiling analysis”", "biological_target": "T1, DasR (Streptomyces verticillus ATCC 15003, UniProt A0A7M1Y6D7 1-256)", "T1 sequence": "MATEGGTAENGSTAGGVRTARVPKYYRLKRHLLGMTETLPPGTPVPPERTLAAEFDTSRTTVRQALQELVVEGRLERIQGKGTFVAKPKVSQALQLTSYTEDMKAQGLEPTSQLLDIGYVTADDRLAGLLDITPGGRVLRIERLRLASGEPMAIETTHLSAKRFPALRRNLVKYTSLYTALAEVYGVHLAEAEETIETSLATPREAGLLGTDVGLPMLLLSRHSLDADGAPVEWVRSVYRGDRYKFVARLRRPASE", "test": "EMSA; EMSA buffer (composition, pH and temperature not given), 30 min incubation, 6% native polyacrylamide gel", "details": "protein: recombinant, tags: C-terminal 6xHis (introduced by reverse primer), chain copies: 2, blunt", "data": [{"binder": "PDasA (dsDNA) DNA 1: CCAAAAGGTCTAGGCCAAGCTGCGGGCACTGGTCTAAACCATTAAAGACCACTTTTCGGTCCTGAGGAGA DNA 2: TCTCCTCAGGACCGAAAAGTGGTCTTTAATGGTTTAGACCAGTGCCCGCAGCTTGGCCTAGACCTTTTGG", "values": [{"measurement": "binding result", "setting": "label: 5'-Cy5", "value": "binds"}]}, {"binder": "PBlmR (dsDNA) DNA 1: GAGAGCACTGTAAGCCCGAACCCGCAAGGATGACGAATTGCAAAATTGTGCAAGTCGCTACATGATGGTCCGGCTGTGCCCGCAGGTAGCCGCGGGCACAGCACCAGACGCTGCCTCCGCGCACCGCGCGGGAGGCCCGGTGAGGCGAGAGGCTGAGGTTCC DNA 2: GGAACCTCAGCCTCTCGCCTCACCGGGCCTCCCGCGCGGTGCGCGGAGGCAGCGTCTGGTGCTGTGCCCGCGGCTACCTGCGGGCACAGCCGGACCATCATGTAGCGACTTGCACAATTTTGCAATTCGTCATCCTTGCGGGTTCGGGCTTACAGTGCTCTC", "values": [{"measurement": "binding result", "value": "no binding"}]}]}
